This assay has as its target taxol-stabilized microtubules. As to the kind of experiment: co-sedimentation; microtubule spin-down from DT40 lysates (about 2 mg/ml) mixed with taxol-stabilized microtubules (0.2 mg/ml) or non-taxol tubulin, 30 °C 30 min, pelleted through a 1 M sucrose cushion in BRB80, western blotting. In general terms: In western blotting, separated proteins are transferred to a membrane and probed.

The substance CEP215(ΔCM1)-TAP (domain or fragment) came in with a fold reduction in microtubule binding compared with CEP215-TAP and CEP215(ΔHBR)-TAP of 3.4 fold.

Source of the values: paper PMC4802056.
